Columns and labels:
His-HDAC2, recombinant = His-HDAC2, recombinant (UniProt Q92769 1-488); experiment: SPR
His-HDAC1, recombinant = His-HDAC1, recombinant (human, UniProt Q13547 1-482); experiment: SPR
Chain of His-HDAC1, recombinant (Q13547 whole entry): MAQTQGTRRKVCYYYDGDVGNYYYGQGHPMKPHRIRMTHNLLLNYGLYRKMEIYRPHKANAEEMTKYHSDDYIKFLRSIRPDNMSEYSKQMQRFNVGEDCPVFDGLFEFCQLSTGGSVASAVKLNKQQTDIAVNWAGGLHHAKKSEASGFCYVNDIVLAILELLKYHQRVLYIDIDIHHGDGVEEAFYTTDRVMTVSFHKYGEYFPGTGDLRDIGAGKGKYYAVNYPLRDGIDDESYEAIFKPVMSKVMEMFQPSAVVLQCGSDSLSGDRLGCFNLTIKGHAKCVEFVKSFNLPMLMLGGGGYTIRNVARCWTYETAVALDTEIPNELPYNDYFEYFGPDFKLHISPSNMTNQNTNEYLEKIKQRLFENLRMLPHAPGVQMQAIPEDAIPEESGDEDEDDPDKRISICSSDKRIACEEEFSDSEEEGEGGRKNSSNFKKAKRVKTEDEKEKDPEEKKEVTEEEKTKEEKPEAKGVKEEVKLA

Chain of His-HDAC2, recombinant (Q92769 whole entry): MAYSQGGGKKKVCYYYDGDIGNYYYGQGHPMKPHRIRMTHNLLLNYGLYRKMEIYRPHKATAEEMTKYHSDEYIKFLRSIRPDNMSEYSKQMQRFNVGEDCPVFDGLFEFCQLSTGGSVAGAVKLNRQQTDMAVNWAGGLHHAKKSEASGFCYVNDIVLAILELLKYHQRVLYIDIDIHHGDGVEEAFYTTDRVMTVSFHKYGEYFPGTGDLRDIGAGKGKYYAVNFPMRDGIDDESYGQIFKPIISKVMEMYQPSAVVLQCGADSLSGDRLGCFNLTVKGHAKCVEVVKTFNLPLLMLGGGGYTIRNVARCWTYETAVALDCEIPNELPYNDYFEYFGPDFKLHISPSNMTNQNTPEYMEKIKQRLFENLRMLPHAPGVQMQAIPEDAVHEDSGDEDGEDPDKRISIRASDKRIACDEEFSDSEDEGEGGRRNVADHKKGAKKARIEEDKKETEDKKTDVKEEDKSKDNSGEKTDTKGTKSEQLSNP

B1: GST-PFKL, recombinant (enzyme)
chain: MAAVDLEKLRASGAGKAIGVLTSGGDAQGMNAAVRAVTRMGIYVGAKVFLIYEGYEGLVEGGENIKQANWLSVSNIIQLGGTIIGSARCKAFTTREGRRAAAYNLVQHGITNLCVIGGDGSLTGANIFRSEWGSLLEELVAEGKISETTARTYSHLNIAGLVGSIDNDFCGTDMTIGTDSALHRIMEVIDAITTTAQSHQRTFVLEVMGRHCGYLALVSALASGADWLFIPEAPPEDGWENFMCERLGETRSRGSRLNIIIIAEGAIDRNGKPISSSYVKDLVVQRLGFDTRVTVLGHVQRGGTPSAFDRILSSKMGMEAVMALLEATPDTPACVVTLSGNQSVRLPLMECVQMTKEVQKAMDDKRFDEATQLRGGSFENNWNIYKLLAHQKPPKEKSNFSLAILNVGAPAAGMNAAVRSAVRTGISHGHTVYVVHDGFEGLAKGQVQEVGWHDVAGWLGRGGSMLGTKRTLPKGQLESIVENIRIYGIHALLVVGGFEAYEGVLQLVEARGRYEELCIVMCVIPATISNNVPGTDFSLGSDTAVNAAMESCDRIKQSASGTKRRVFIVETMGGYCGYLATVTGIAVGADAAYVFEDPFNIHDLKVNVEHMTEKMKTDIQRGLVLRNEKCHDYYTTEFLYNLYSSEGKGVFDCRTNVLGHLQQGGAPTPFDRNYGTKLGVKAMLWLSEKLREVYRKGRVFANAPDSACVIGLKKKAVAFSPVTELKKDTDFEHRMPREQWWLSLRLMLKMLAQYRISMAAYVSGELEHVTRRTLSMDKGF
What does the source list for B1?
Kd (His-HDAC2, recombinant): 9.5 nM; Kd (His-HDAC1, recombinant): 2.18 nM
